Target: RAD51 (UniProt Q06609 1-339)
Test: EMSA

Sequence of RAD51 (Q06609 whole entry): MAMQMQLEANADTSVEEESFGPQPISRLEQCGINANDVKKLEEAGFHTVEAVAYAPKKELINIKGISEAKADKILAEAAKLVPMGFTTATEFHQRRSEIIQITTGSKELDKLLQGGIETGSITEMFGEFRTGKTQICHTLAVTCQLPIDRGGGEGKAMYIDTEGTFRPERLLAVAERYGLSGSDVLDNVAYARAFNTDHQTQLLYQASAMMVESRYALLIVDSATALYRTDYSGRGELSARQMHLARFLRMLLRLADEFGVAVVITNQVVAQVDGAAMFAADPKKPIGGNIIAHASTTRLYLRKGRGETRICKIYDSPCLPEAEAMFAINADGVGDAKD

With UUAGGGUUAGGGUUAGGGUUAGGGUUAGGGUUAGGGUUAGG (ssRNA) [41mer TERRA] the binding signal was ~3 fold higher affinity than TelDNA (N2).
